Values joined by “and” are separate entries in the source; they are usually repeats but may differ in a detail not shown here. Identical values can stand only once.
How the values were obtained:
[1] = target: the molecule itself; experiment: SEC
[2] = target: the molecule itself; experiment: negative-stain electron microscopy and electron tomography

Protein | stoichiometry N [1] | stoichiometry N [2]
ssoMCM F540A mutant (full length) (natural protein, Sulfolobus solfataricus, UniProt Q9UXG1 1-686, looked up) MEIPSKQIDYRDVFIEFLTTFKGNNNQNKYIERINELVAYRKKSLIIEFSDVLSFNENLAYEIINNTKIILPILEGALYDHILQLDPTYQRDIEKVHVRIVGIPRVIELRKIRSTDIGKLITIDGILVKVTPVKERIYKATYKHIHPDCMQEFEWPEDEEMPEVLEMPTICPKCGKPGQFRLIPEKTKLIDWQKAVIQERPEEVPSGQLPRQLEIILEDDLVDSARPGDRVKVTGILDIKQDSPVKRGSRAVFDIYMKVSSIEVSQKVLDEVIISEEDEKKIKDLAKDPWIRDRIISSIAPSIYGHWELKEALALALFGGVPKVLEDTRIRGDIHILIIGDPGTAKSQMLQFISRVAPRAVYTTGKGSTAAGLTAAVVREKGTGEYYLEAGALVLADGGIAVIDEIDKMRDEDRVAIHEAMEQQTVSIAKAGIVAKLNARAAVIAAGNPKFGRYISERPVSDNINLPPTILSRFDLIFILKDQPGEQDRELANYILDVHSGKSTKNIIDIDTLRKYIAYARKYVTPKITSEAKNLITDFAVEMRKKSSETPDSPILITPRQLEALIRISEAYAKMALKAEVTREDAERAINIMRLFLESVGVDMESGKIDIDTIMTGKPKSAREKMMKIIEIIDSLAVSSECAKVKDILKEAQQVGIEKSNIEKLLTDMRKSGIIYEAKPECYKKV | ~3 | 6 and 8
ssoMCM G485P/G501P mutant (alpha5-linker mutant, full length) (natural protein, Sulfolobus solfataricus, UniProt Q9UXG1 1-686, looked up) MEIPSKQIDYRDVFIEFLTTFKGNNNQNKYIERINELVAYRKKSLIIEFSDVLSFNENLAYEIINNTKIILPILEGALYDHILQLDPTYQRDIEKVHVRIVGIPRVIELRKIRSTDIGKLITIDGILVKVTPVKERIYKATYKHIHPDCMQEFEWPEDEEMPEVLEMPTICPKCGKPGQFRLIPEKTKLIDWQKAVIQERPEEVPSGQLPRQLEIILEDDLVDSARPGDRVKVTGILDIKQDSPVKRGSRAVFDIYMKVSSIEVSQKVLDEVIISEEDEKKIKDLAKDPWIRDRIISSIAPSIYGHWELKEALALALFGGVPKVLEDTRIRGDIHILIIGDPGTAKSQMLQFISRVAPRAVYTTGKGSTAAGLTAAVVREKGTGEYYLEAGALVLADGGIAVIDEIDKMRDEDRVAIHEAMEQQTVSIAKAGIVAKLNARAAVIAAGNPKFGRYISERPVSDNINLPPTILSRFDLIFILKDQPPEQDRELANYILDVHSPKSTKNIIDIDTLRKYIAYARKYVTPKITSEAKNLITDFFVEMRKKSSETPDSPILITPRQLEALIRISEAYAKMALKAEVTREDAERAINIMRLFLESVGVDMESGKIDIDTIMTGKPKSAREKMMKIIEIIDSLAVSSECAKVKDILKEAQQVGIEKSNIEKLLTDMRKSGIIYEAKPECYKKV | ~3 | 

From publication PMC3597688 (Nucleic Acids Research, 2013)
